As usually defined, the Kd is the constant that tells how readily two partners part at equilibrium. The koff is the first-order rate constant of dissociation. One may read the kon as a measure of how fast the partners come together. Read a low kon as slower complex formation.

Substitutions are numbered along the chain they refer to.

We go through ten molecules from patent publication US20210070872A1 (AGENUS, published 2021).

For assay [1], the target named is purified recombinant human GITR protein (Example 1) (human) (UniProt Q9Y5U5). The experiment in a line: SPR (BIAcore), huGITR immobilized on CM5, analyte 12.5-200 nM. On the technique in general: In SPR one partner is held on a chip, and binding of the other changes the refractive index at the surface.
For assay [2], the target named is T1, human GITR D60A mutant on 1624-5 cells (human, UniProt Q9Y5U5 26-241).
T1 chain: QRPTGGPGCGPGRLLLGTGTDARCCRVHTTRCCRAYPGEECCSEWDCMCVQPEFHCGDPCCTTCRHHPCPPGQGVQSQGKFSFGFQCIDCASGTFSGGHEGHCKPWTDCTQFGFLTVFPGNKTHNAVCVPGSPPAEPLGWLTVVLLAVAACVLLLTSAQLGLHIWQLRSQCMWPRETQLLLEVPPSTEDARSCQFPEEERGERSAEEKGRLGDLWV
The experiment in a line: flow cytometry on 1624-5 cells, 2 µg/ml, MFI ratio to polyclonal antibody. Here is the method: (§1) An average MFI ratio (“AMFI ratio”) was calculated based on the individual MFI ratios for all the mutants. FIG. 34A is a table summarizing the binding of Hum231#2, three germline variants (pab1967, pab1975 and pab1979) and the reference antibody m6C8 to1624-5 cells expressing human GITR alanine mutants. An individual MFI ratio that is above 60% of the AMFI ratio is considered to indicate similar binding, after normalization, of that of the polyclonal antibody and is represented by “+” in FIG. 34A. An individual MFI ratio that is between 30% and 60% of the AMFI ratio is represented by “+/−” in FIG. 34A. An individual MFI ratio that is below 30% of the AMFI ratio is represented by “−” in FIG. 34A.
(§2) All the mean fluorescence intensity (MFI) values were calculated as the mean of two measurements. […] The percentage of binding of an antibody to the GITR alanine mutants relative to the wild type GITR was calculated by dividing a particular MFI ratio for the GITR alanine mutants by the corresponding MFI ratio for the wild type (e.g., dividing MFI ratio_{Hum231#2, D60A} by MFI ratio_{Hum231#2, WT}). The percentage of reduction in binding was determined by calculating, e.g., 100%*(1−(MFI ratio_{Hum231#2, D60A}/MFI ratio_{Hum231#2, WT})).
(In general: In flow cytometry, cells or beads pass a laser one at a time.)

For assay [3], the target named is T2, human GITR G63A mutant on 1624-5 cells (human, UniProt Q9Y5U5 26-241).
T2 chain: T1 chain with A35D, G38A
Described as above. Here is the method: as §1, §2

In another assay the target is T3, biotinylated GITR (human, UniProt Q9Y5U5 26-161, limits assumed, biotinylated (sites not given)).
T3 construct: also called GITR-bio; Biotin-GITR
T3 sequence: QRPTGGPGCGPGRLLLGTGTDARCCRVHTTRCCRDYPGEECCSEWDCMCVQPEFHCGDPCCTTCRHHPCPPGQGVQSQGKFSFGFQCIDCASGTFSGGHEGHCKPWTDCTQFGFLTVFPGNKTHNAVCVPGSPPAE
Kind of assay: BLI (Octet), biotin-GITR on streptavidin tips, antibody supernatant. As to the method: Several hundred germlined antibodies were selected based on binding kinetics as determined by Octet measurements (Octet RED 96 system; ForteBio™ Inc., Menlo Park, Calif.). The experimental procedure was configured according to the instruction manual of the instrument. Biotin-GITR was bound to Streptavidin biosensor (SA) and PBS (pH 7.4) was used as a blank control. Briefly, the interaction analyses were conducted at 30° C. in running buffer (PBS, 0.05% Tween, pH7.4). Sensor tips were pre-wet for 10 minutes in running buffer immediately prior to use, and the micro plates used in the Octet were filled with 200 μl of sample or buffer per well and agitated at 800 rpm. For the experiments, commercially available precoated SA tips were used. Biotinylated GITR was loaded onto the ForteBio SA fibers in PBS pH7.4 for 10 minutes and washed for 4 minutes. For the association phase, the ligand-coated SA tips were immersed for 5 minutes in cell culture supernatant that was diluted 1:10 in running buffer prior to the measurement. Dissociation of the antibody-antigen complex was measured in wells containing the Octet buffer alone for 5 minutes. After each run, the tips were regenerated with Glycine (10 mM, pH 2.0). Affinity, Kₒₙ and Koff were determined with Octet evaluation software v6.3 using a 1:1 binding model with local full fitting.
For orientation: BLI is a label-free optical method that tracks binding on a fibre tip over time.

Assay [4] deals with T4, GITR antigen (R&D systems, di-sulfide-linked homodimer; 689-GR) (human, UniProt Q9Y5U5 26-161).
T4 construct: Bought
T4 sequence: T3 sequence
The experiment in a line: SPR (BIAcore T100/T200), antibody captured via anti-human Fab, GITR antigen 40/10/2.5 nM, 1:1 model. As to the method: All interactions were analyzed at 25° C. using 1× DPBS (PAA, H15-002) plus P20 (0.05%, Pierce, 28320) as running buffer. Anti-GITR antibodies (8 μg/ml in running buffer) were captured to the chip surface of a CM5 sensor chip (GE Healthcare, Series S CM5, BR-1005-30) via an immobilized anti-human Fab antibody (GE Healthcare, Fab Capture Kit, 28958325). To detect unspecific interactions of the GITR antigen, antibody capture was only performed in flow cell 2, whereas in flow cell 1 only the capturing antibody was immobilized. In addition, an unrelated antibody (anti-IL-1β; SK48E26; International Publication No. WO 95/001997) was used to assess specificity of GITR binding. After capture of the anti-GITR antibodies GITR antigen (R&D systems, di-sulfide-linked homodimer; 689-GR) was run through both flow cells in different amounts (40 nM, 10 nM and 2.5 nM) for each antibody. Also a blank curve (running buffer only) was included in each run. Association was run for 90 s and dissociation for 600 s with a flow rate of 10 μl/min. After each run a regeneration step was performed with 10 mM Glycine pH2.0 (GE Healthcare, BR-1003-55) for 60 s with 30 μl/min. Binding curves were evaluated using BIAcore® T200 evaluation software version 2.0.1 applying a Langmuir 1:1 model with global fit of Rmax.

Assay [5] addresses T5, purified recombinant human GITR protein (Example 1) (human, UniProt Q9Y5U5 26-162, limits assumed).
T5 construct: also called Hu GITR recomb protein; immobilized huGITR
T5 sequence: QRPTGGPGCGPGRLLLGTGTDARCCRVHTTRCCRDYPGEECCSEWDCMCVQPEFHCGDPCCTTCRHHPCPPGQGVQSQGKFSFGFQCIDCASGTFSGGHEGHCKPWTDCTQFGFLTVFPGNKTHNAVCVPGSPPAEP
The experiment in a line: SPR (BIAcore), huGITR immobilized on CM5, antibody 6.25-100 nM. Here is the method:
Analysis of ligand (GITR-L) and monoclonal antibody binding to immobilized huGITR was performed by surface plasmon resonance and measured on BIAcore®. GITR (˜1100 RU) was immobilized onto a CM5 sensor chip using standard amine coupling. Analytes were injected over the immobilized GITR for 15 minutes at a flow rate of 5 μl/min followed by a 10 minute dissociation period. After kinetic runs had been performed the affinity and dissociation constants were simultaneously calculated by BiaEvaluation® software (Biacore Life Sciences). Binding of human GITR-L was analysed over a concentration range of 12.5-200 nM and murine anti-GITR monoclonal antibodies were analysed over a concentration of 6.25-100 nM. […] Affinity and dissociation constants for the antibodies are tabulated below in Table 9.

The target in the next assay is T6, recombinant mouse GITR (mouse, UniProt O35714 20-153, limits assumed).
T6 construct: also called Mu GITR recomb protein; immobilized mouse GITR
T6 sequence (looked up): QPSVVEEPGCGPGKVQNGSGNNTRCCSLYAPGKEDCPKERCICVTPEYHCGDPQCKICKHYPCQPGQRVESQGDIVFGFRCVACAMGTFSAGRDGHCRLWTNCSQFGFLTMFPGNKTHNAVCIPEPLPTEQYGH
The experiment in a line: Western blot, non-reducing. Here is the method:
The specificity of the anti-GITR-antibodies was tested by Western blot against purified recombinant human GITR, recombinant mouse GITR, CMS5a cells transfected with human GITR, wild-type CMS5a cells, activated CD4⁺ T cells and untreated CD4⁺ T cells. The Western blot, under non-reducing conditions, is depicted in FIG. 1. The anti-GITR antibodies were reactive with purified recombinant human GITR, not reactive with recombinant mouse GITR, reactive with recombinant human GITR in CMS5a cells, and reactive with natural human GITR in activated CD4⁺ T cells.

Take “human GITR-L (Example 1, BIAcore analyte) (from UniProt Q9UNG2 49-177) (ligand)”: in assay [1], the Ka amounted to 1.81e+08 M⁻¹ and the Kd was 5.54 nM.

B1: m6C8 (antibody, human IgG1, V domains shown)
VH: QVTLKESGPGILKPSQTLSLTCSFSGFSLSTSGMGVGWIRQPSGKGLEWLAHIWWDDDKYYNPSLKSQLTISKDTSRNQVFLKITSVDTADAATYYCARTRRYFPFAYWGQGTLVTVSS
VL: DIVMTQSQKFMSTSVGDRVSVTCKASQNVGTNVAWYQQKPGQSPKALIYSASYRYSGVPDRFTGSGSGTDFTLTINNVHSEDLAEYFCQQYNTDPLTFGAGTKLEIKR
notes: also called murine antibody 6C8
For the molecule B1, in assay [2], the “percent reduction in binding relative to wild type human GITR” value was 10%. The “percent increase in binding relative to wild type human GITR” value in assay [3] turned out to be 62%.

B2: germline variant antibody 18 (H1916B09 / K1916B09) (antibody, V domains shown)
VH: QVQLVQSGTEVKKPGASVKVSCKASGYTFTGYAMYWVRQAPGQGMEWIGLIRTFSGEVTYNQKFRGRVTMTVDTSISTAYMELSRLRSDDTAVYYCAKSGTVRGFAYWGQGTLVTVSS
VL: DIVMTQSPDSLAVSLGERATINCKSSQSLLNSSNQKNYLTWYHQKPGQPPKMLIYWASTRESGVPDRFTGSGSGTDFTLTISSVQAEDVAVYYCQNDYSYPYTFGQGTKLEIK
notes: IGHG1/IGKC expression vectors; measured from CHO culture supernatant; also called Antibody ID 18
In the assay with biotinylated GITR, B2 showed a Kd of 3.77 nM, a koff of 0.000824 s⁻¹ and a kon of 219000 M⁻¹ s⁻¹.

B3: germline variant antibody 21 (H1916C03 / K1916C03) (antibody, V domains shown)
VH: B2 VH with A24G, A33V, Y35H, L50V, E57D, T59S, G66E
VL: B2 VL with S33G, M52L, T69S, Y93H
notes: IGHG1/IGKC expression vectors; measured from CHO culture supernatant; also called Antibody ID 21
In the assay with biotinylated GITR, B3 came in with a Kd of 8.44 nM, a koff of 0.00261 s⁻¹ and a kon of 309000 M⁻¹ s⁻¹.

B4: Hum231#1 (antibody, V domains shown)
VH: QVQLVQSGAEVKKPGASVKVSCKGSGYTFTDYAMYWVRQAPGQGLEWIGVIRTYSGDVTYNQKFKDRATMTVDKSISTAYMELSRLRSDDTAVYYCAKSGTVRGFAYWGQGTLVTVSS
VL: DIVMTQSPPTLSLSPGERVTLSCKSSQSLLNSGNQKNYLTWYQQKPGQAPRLLIYWASTRESGIPARFSGSGSGTDFTLTISSLQPEDFAVYHCQNDYSYPYTFGQGTKLEIK
notes: Variable regions cloned with IGHG1 (also IGHG4 and Fab vectors exist) and IGKC constant regions; format in each assay not always stated; also called humanized variant Hum231#1 (IGHV1-2*02 and IGK3-7*02)
B4: in assay [4], the Kd was determined as 0.702 nM, the koff was 0.00249 s⁻¹ and the kon is 3.55e+06 M⁻¹ s⁻¹.

B5: germline variant antibody 20 (H1916B12 / K1916B12) (antibody, V domains shown)
VH: B2 VH with G31D, M45L, L50V, E57D, V58L, T59S
VL: B2 VL with S33G, H43Q, I54L, Y93H
notes: IGHG1/IGKC expression vectors; measured from CHO culture supernatant; also called Antibody ID 20
On to B5, for which, in the assay with biotinylated GITR, the Kd worked out at 1.35 nM, the koff was 0.00038 s⁻¹ and the kon amounted to 283000 M⁻¹ s⁻¹.

B6: mAb 231-1039-45 (murine) (antibody, mouse IgG1, V domains shown)
VH: QVQLLQSGTELVRPGVSVKISCKGSGYTFTDYAMYWVKQSHAKSLEWIGVIRTYSGDVTYNQKFKDKATMTVDKSSSIAYMELARLSSEDSAIYYCAKSGTVRGFAYWGQGTLVTVSS
VL: DIVMTQSPSSLTVTAGEKVIMSCKSSQSLLNSGNQKNYLTWYQQKPGQPPKLLIYWASTRESGVPDRFTGSGSGTDFTLTISSVQAEDLAVYHCQNDYSYPYTFGGGTKLEIK
notes: Mouse IgG1 from hybridoma
As to B6, in assay [5], the Ka was 4.2e+08 M⁻¹ and the Kd amounted to 2.38 nM. Also, in the assay with recombinant mouse GITR, the binding result was “no binding”.

B7: mAb 231-1333-21 (murine) (antibody, mouse IgG1, V domains shown)
VH: B6 VH
VL: B6 VL
notes: Mouse IgG1 from hybridoma
For the molecule B7, in assay [5], the Ka turned out to be 4.19e+08 M⁻¹ and the Kd came to 2.39 nM. Also, the binding result with recombinant mouse GITR is given as “no binding”.

B8: mAb 231-32-15 (murine) (antibody, mouse IgG1, V domains shown)
VH: B6 VH
VL: B6 VL
notes: Mouse IgG1 from hybridoma; also called antibody 32-15
In the case of B8, in assay [5], the Ka came to 4.04e+08 M⁻¹ and the Kd was determined as 2.47 nM. Also, the binding result with recombinant mouse GITR is listed as “no binding”.

B9: mAb 231-1042-7 (murine) (antibody, mouse IgG1, V domains shown)
VH: B6 VH
VL: B6 VL
notes: Mouse IgG1 from hybridoma
For B9, in assay [5], the Ka was 4.3e+08 M⁻¹ and the Kd was determined as 2.33 nM. The binding result with recombinant mouse GITR was “no binding”.
